Experiments:
[1] = system: C-terminal region of human MERMUC (bait-2, bait-3); experiment: Yeast two hybrid screening of human kidney cDNA library with MERMUC baits; type: binding; conditions: for binding ability to the protein derived from bait-2: bait-2 = 123 amino acid portion of the C-terminus of human MERMUC; for binding ability to the protein derived from bait-3: bait-3 = 65 C-terminal amino acids of human MERMUC
Experimental: Specifically, yeast two hybrid system (Proc. Natl. Acad. Sci. USA., 1991, Vol.88, p.9578-9582) was performed to screen a human kidney cDNA library using cDNA corresponding to the C-terminal region of the human MERMUC as the bait (that is, fishing bait).
Two kinds of bait (bait-2 and bait-3) were designed using each of Ex.-2 and Ex.-3 as the core. Bait-2 corresponds to a 123 amino acid portion of the C-terminus (bait-2) and bait-3 corresponds to the 65 C-terminal amino acids (bait-3).
Each bait vector was obtained by inserting each DNA fragment obtained by digesting each of the PCR products with the restriction enzymes EcoRI and SalI into the EcoRI/SalI site of pGBKT7 vector (leucine biosynthesis gene as a marker; CLONTECH). In yeast, the gene within the vector is produced as a fusion protein ([fusion protein A]) with the DNA binding region (GAL4-DB) of the yeast transcription factor GAL4.
On the other hand, each cDNA of the human kidney derived cDNA library (CLONTECH) that is used for the screening with the bait vector is inserted in pADK vector (tryptophan biosynthesis gene as a marker). Therefore, proteins produced through the expression of each of these cDNAs in yeast are produced as a fusion protein ([fusion protein B]) with the GAL4 transcriptional activation region (GAL4-AD).
AH109 strain (leucine, tryptophan, histidine and adenine auxotrophic yeast; CLONTECH) was used as the yeast host. This yeast strain contains 3 types of genes (histidine biosynthesis gene, adenine biosynthesis gene and β-galactosidase gene) under the control of the GAL promoter on the chromosome.
The function as a transcription factor is recovered through the fusion of GAL4-DB and GAL4-AD by the binding of the bait protein (the fusion protein A) with the prey protein (the fusion protein B).
Each bait vector was introduced into yeast AH109 strain with the cDNA library plasmid mentioned above (50,000 clones per pool) by the polyethylene glycol/lithium acetate method for screening (J. Bacteriol., 1983, Vol. 153, p.163-16883; Curr. Genet., 1989, Vol. 16, p. 339-346; Nucleic Acids Res., 1991, Vol. 19, p. 5791; Nucleic Acids Res., 1992, Vol. 20, p.1425).
The marker for the first selection of yeast with the desired transformation in the present screening was acquired histidine non-requirement due to the expression of the histidine biosynthesis gene. Therefore, after introducing the plasmid, yeast was cultured for 5 days at 30° C. in yeast minimum medium that lacks leucine, tryptophan and histidine (SD/-Leu,-Trp,-His) used for selecting transformants.
Transformed yeast that grew on the plate upon cultivation were picked with toothpick and seeded on 3 kinds of plates described below, and then cultured for 5 days at 30° C. for a second selection of the desired clones: • <A> plate containing yeast minimum medium lacking leucine, tryptophan and histidine (SD/-Leu, -Trp, -His); • <B> plate containing yeast minimum medium lacking leucine, tryptophan and adenine (SD/-Leu, -Trp, -Ade); and • <C> plate containing yeast minimum medium lacking leucine and tryptophan, and supplemented with α-X-gal (20 ug/ml) (SD/-Leu, -Trp, +X-gal).
Positive clones were identified as colonies growing on both of the above-mentioned <A> and <B> plates (acquirement of histidine and adenine non-requirement) and showing blue color on plate <C> (α-X-gal addition) (expression of β-galactosidase activity). Four prey cDNA clones (clones No. 3-309, No. 3-312, No. 2-22 and No. 2-211) were selected as positive.

[2] = molecular target: T1, HGF receptor c-Met β chain (Homo sapiens, UniProt P08581); experiment: Yeast two-hybrid binding of MERMUC bait proteins to c-Met prey (C-terminal 91 amino acids); conditions: prey clone No. 3-309 (C-terminal 91 amino acids of human c-Met)
T1 construct: expressed in transfected cells; host or cells: yeast AH109 strain (library prey plasmid, human kidney cDNA library, CLONTECH)
Experimental: The present examination was performed using the previously reported yeast two-hybrid system (references are described above) according to conventional method and the experimental protocols provided with the reagents. […]
The binding ability of MERMUC bait protein derived from each of the bait vectors to the HGF receptor c-Met β chain was analyzed by the yeast two-hybrid system described above. […]
Each of the bait vectors was cointroduced into yeast AH109 strain with human HGF receptor c-Met prey vector (comprising DNA encoding the C-terminal 91 amino acids of the c-Met; Example 1). The binding ability of each of the bait proteins (randomly selected 10 amino acids of the human MERMUC C-terminal region) to the C-terminal region of human c-Met β chain was analyzed by the yeast two-hybrid system similar to the aforementioned Example.

Molecule	binding ability to the protein derived from bait-2 [1]	binding ability to the protein derived from bait-3 [1]	binding activity to the HGF receptor c-Met β chain [2]
C260: MERMUC bait protein, C-terminal 260 amino acids of cytoplasmic region; amino acids 244-503 of SEQ ID NO: 10 (protein, listed as Homo sapiens) VKASSTSDPPALPDSTEAKPHITEVTASAETLSTAGTTESAAPHATVGTPLPTNSATEREVTAPGATTLSGALVTVSRNPLEETSALSVETPSYVKVSGAAPVSIEAGSAVGKTTSFAGSSASSYSPSEAALKNFTPSETPTMDIATKGPFPTSRDPLPSVPPTTTNSSRGTNSTLAKITTSAKTTMKPPTATPTTARTRPTTDVSAGENGGFLLLRLSVASPEDLTDPRVAERLMQQLHRELHAHAPHFQVSLLRVRRG			possessed the binding activity
C260AC53: MERMUC bait protein, 53 amino acids deleted from the C-terminus of C260; amino acids 244-450 of SEQ ID NO: 10 (protein, listed as Homo sapiens) VKASSTSDPPALPDSTEAKPHITEVTASAETLSTAGTTESAAPHATVGTPLPTNSATEREVTAPGATTLSGALVTVSRNPLEETSALSVETPSYVKVSGAAPVSIEAGSAVGKTTSFAGSSASSYSPSEAALKNFTPSETPTMDIATKGPFPTSRDPLPSVPPTTTNSSRGTNSTLAKITTSAKTTMKPPTATPTTARTRPTTDVSA			completely lost the binding activity
clone No. 2-22: prey protein: C-terminal 93 amino acids (amino acids 411-503 of SEQ ID NO: 10) of human MERMUC (protein, listed as Homo sapiens) SSRGTNSTLAKITTSAKTTMKPPTATPTTARTRPTTDVSAGENGGFLLLRLSVASPEDLTDPRVAERLMQQLHRELHAHAPHFQVSLLRVRRG	had binding ability		

Second part, the molecule after the results:

binding ability to the protein derived from bait-2 [1]	binding ability to the protein derived from bait-3 [1]	binding activity to the HGF receptor c-Met β chain [2]	Molecule
had binding ability	had binding ability		clone No. 3-309: prey protein: C-terminal 91 amino acids (amino acids 993-1083 of SEQ ID NO: 4) of the human c-Met β chain (protein, listed as Homo sapiens) RRLLQPEYCPDPLYEVMLKCWHPKAEMRPSFSELVSRISAIFSTFIGEHYVHVNATYVNVKCVAPYPSLLSSEDNADDEVDTRPASFWETS
had binding ability	had binding ability		clone No. 3-312: prey protein: C-terminal 89 amino acids (amino acids 995-1083 of SEQ ID NO: 4) of the human c-Met β chain (protein, listed as Homo sapiens) LLQPEYCPDPLYEVMLKCWHPKAEMRPSFSELVSRISAIFSTFIGEHYVHVNATYVNVKCVAPYPSLLSSEDNADDEVDTRPASFWETS

— patent US20050113284A1, “Drug for regenerating tissue and vessel and method therefor” (priority 2001, published 2005)
